On the set-up of data set [1]: species or system BALB/c nu/nu mice. To be noted: mouse, in vivo. As to the method:
Four BALB/C nu/nu mice were used for the biodistribution studies. At the time of experiment, the average animal weight was 20.5 ± 0.9 g. Animals were injected intravenously (tail vein) with 3 µg (30 kBq) of ^111In-DTPA-A9 in 100 µL PBS. Since DTPA-A9 peptide resulted stable to serum proteolytic degradation in a range of 90 minutes (for details see Supplementary Information Fig. S6), at 1 hour after injection, a mixture of Ketalar-Rompun (20 µL of solution per gram body weight; Ketalar: 10 mg/mL; Rompun: 1 mg/mL) was injected intraperitonealy, and the mice were euthanized by a heart puncture using a syringe, pre-washed with diluted heparin (5000 IE/mL). Blood as well as brain, stomach, pancreas, lung, liver, spleen, kidneys, samples of muscle and bone, gastrointestinal tract (with its content) and remaining carcass were collected in pre-weighed plastic vials. Organs and tissue samples were weighed and measured for radioactivity using an automatic gamma counter. The tissue uptake values were calculated as per cent injected activity per gram of tissue (% ID/g) and per whole sample (% ID/sample). The gastrointestinal tract and the carcass uptakes were calculated only as % ID per whole sample. The radioactivity in the gastrointestinal tract with its content was used as a measure of hepatobiliary excretion.

Data set [2] deals with HER2-expressing BT474 cells. Nature of the data set: LigandTracer / InteractionMap kinetics of binding to living HER2-expressing cells. To be noted: 1:2 interaction model, room temperature, 4, 12 and 36 nM, read-out: affinity, weaker binding site (low affinity interaction). Further details: species or system human. As to the method: For cell studies, the HER2-expressing breast carcinoma cell line BT474 (from ATCC) was used. The cell line was cultured in RPMI medium (Flow Irvine, UK) supplemented with 10% fetal calf serum (Sigma, USA), 2 mM L-glutamine and PEST (penicillin 100 IU/mL and 100 μg/mL streptomycin), all from Biokrom Kg, Germany.
Cells from the human breast carcinoma cell line BT474 were seeded on a local area of a cell culture dish (NunclonTM, Size 100620, NUNC A/S, Roskilde, Denmark), as described by Björke and Andersson[63]. The binding of ^111In-DTPA-A9 to living cells was monitored in real-time at room temperature using LigandTracer Yellow, using method established by Björke and Andersson[63]. In brief, the cell culture dish was placed on the sloping and rotating cell dish holder in LigandTracer Yellow, followed by a continuous monitoring of the radioactivity level along the rim of the dish. If the labelled peptide binds to the cells, an elevated signal will be recorded when the cells pass by the detector. […] Binding and dissociation curves were analyzed by InteractionMap software as described by Björkelund et al. to calculate affinity of ^111In-DTPA-A9 binding to living HER2-expressing cells.
Additionally, specificity of ^111In-DTPA-A9 binding to HER2 expressing cells was evaluated using pre-saturation of receptors by trastuzumab and by using ^111In-labeled scrambled DTPA-A9 (^111In- DTPA-S-A9). […]

A short description of data set [3]: In vitro peptide stability in serum (HPLC). To be noted: during one hour; 0.5 mg/mL, RPMI with 10% FBS, 37 °C. In kind it is in vitro ADME. As to the method:
Figure S4: In vitro Peptide Stability in Serum. A9 modified peptides at concentration of 0.5 mg/mL were dissolved in RPMI containing 10% of FBS (fetal bovine serum) and incubated at 37 °C. Samples (50 μL) were taken regularly (t = 0, 0.5, 1, 2, 3, 6, and 24 h) and mixed with 100 μL of CH3CH2OH (96%), for precipitation of serum proteins. The cloudy reaction sample is cooled (4 °C) for 15 min and then spin at 16,000 rpm for 2 min, to pellet the precipitated serum proteins^1. The chromatographic analysis of samples (30 μL injected for each injection) were performed on an Alliance HT WATERS 2795 system, equipped with a PDA WATERS detector 2996 using a […] C18 Waters xBridge (3 μm, 4.6 x 50 mm) column, with a linear gradient from 5% to 70% of 0.05% TFA in CH3CN (Solvent B) over 20 min at a flow rate of 0.2 mL/min. […] Results are mean of three independent experiments performed in duplicate.

Where a SMILES comes first, the peptide text is derived from it. Where no end group is shown, it is not given here. The star is where a group is joined. DTPA = O=C(O)CN(CCN(CC(=O)O)CC(=O)O)CCN(CC(=O)O)CC(=O)*

As for `CC(C)[C@H](NC(=O)[C@H](C)NC(=O)[C@@H](NC(=O)[C@H](CC(N)=O)NC(=O)[C@@H](NC(=O)[C@H](CC(=O)O)NC(=O)[C@H](CCC(N)=O)NC(=O)CN(CCN(CCN(CC(=O)O)CC(=O)O)CC(=O)O)CC(=O)O)C(C)C)[C@@H](C)O)C(=O)N[C@@H](C)C(=O)N[C@@H](Cc1c[nH]c2ccccc12)C(N)=O` [^111In-DTPA-A9, metal not drawn] ({DTPA}-QDVNTAVAW-NH2), the “radioactivity in the gastrointestinal tract with content” value in data set [1] was “approximately 1 % of injected activity”. Besides, in data set [1] (iv, 1 h), the “uptake, blood” value is on record as 0.24 ± 0.04 % ID/g; the “uptake, bone” value turned out to be 0.16 ± 0.13 % ID/g; the “uptake, brain” value is 0.03 ± 0.03 % ID/g; the “uptake, liver” value worked out at 0.44 ± 0.04 % ID/g. Besides, in data set [1] (iv, 1 h), the “uptake, lung” value is reported as 0.5 ± 0.3 % ID/g; the “uptake, muscle” value was 0.01 ± 0.01 % ID/g; the “uptake, pancreas” value is 0.13 ± 0.03 % ID/g; the “uptake, spleen” value is given as 0.22 ± 0.01 % ID/g. Moreover, in data set [1] (iv, 1 h), the “uptake, stomach” value was 0.27 ± 0.07 % ID/g.
“^111In-DTPA-SA9: 111In-labeled scrambled conjugate, same amino acids as A9 but in a different order ({DTPA}-WAVQNTDAV-NH2; also: DTPA complexed with 111In)”: the Kd in data set [2] is 103 nM.
On to QDVNTAVAW-NH2 [A9], for which, in data set [3], the “stability on incubation in vitro with blood serum” value is given as “high stability”.

The values above are taken from article PMC5812989, “Evaluation of HER2-specific peptide ligand for its employment as radiolabeled imaging probe” (Scientific Reports, 2018).
